The values that follow come from paper doi:10.1101/2021.06.01.446150.

The target of assay [1] is human ghrelin O-acyltransferase (hGOAT), FLAG-tagged, wild type (human) (UniProt Q96T53).
For assay [2], the target named is endogenous hGOAT of prostate cancer cells (human (endogenous in 22Rv1 and LNCaP)) (UniProt Q96T53). Briefly: confocal imaging of fluorescent ligand binding and uptake by cells.

In the case of “H-GS-Dap-Nal-1-LSPTK(SulfoCy5)-NH2 (ligand 15) (peptide)”, the inhibition of hGOAT activity by ligand 15 in assay [1] came out at 17 nM. The percent of cells exhibiting ligand binding in assay [2] is 100%.
